1 molecule from PMC2064659 (The Journal of Cell Biology, 2007) can be followed below.

In this assay the target is T1, GST-SH3^SGEF (amino acids 789–850) (UniProt Q96DR7 789-850).
T1 sequence (looked up): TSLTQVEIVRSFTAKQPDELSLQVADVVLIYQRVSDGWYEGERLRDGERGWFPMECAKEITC
Nature of the assay: pull-down.

B1: ICAM1–intracellular tail peptide, biotinylated (peptide)
peptide: GRQRKIKKYRLQQAQKGTPMKPNTQATPP
HELM: PEPTIDE1{[O=C1N[C@H]2[C@H](CS[C@H]2CCCCC(=O)[*:2])N1].G.R.Q.R.K.I.K.K.Y.R.L.Q.Q.A.Q.K.G.T.P.M.K.P.N.T.Q.A.T.P.P}$$$$V2.0
SMILES: CC[C@H](C)[C@H](NC(=O)[C@H](CCCCN)NC(=O)[C@H](CCCNC(=N)N)NC(=O)[C@H](CCC(N)=O)NC(=O)[C@H](CCCNC(=N)N)NC(=O)CNC(=O)CCCC[C@@H]1SC[C@@H]2NC(=O)N[C@@H]21)C(=O)N[C@@H](CCCCN)C(=O)N[C@@H](CCCCN)C(=O)N[C@@H](Cc1ccc(O)cc1)C(=O)N[C@@H](CCCNC(=N)N)C(=O)N[C@@H](CC(C)C)C(=O)N[C@@H](CCC(N)=O)C(=O)N[C@@H](CCC(N)=O)C(=O)N[C@@H](C)C(=O)N[C@@H](CCC(N)=O)C(=O)N[C@@H](CCCCN)C(=O)NCC(=O)N[C@H](C(=O)N1CCC[C@H]1C(=O)N[C@@H](CCSC)C(=O)N[C@@H](CCCCN)C(=O)N1CCC[C@H]1C(=O)N[C@@H](CC(N)=O)C(=O)N[C@H](C(=O)N[C@@H](CCC(N)=O)C(=O)N[C@@H](C)C(=O)N[C@H](C(=O)N1CCC[C@H]1C(=O)N1CCC[C@H]1C(=O)O)[C@@H](C)O)[C@@H](C)O)[C@@H](C)O
Regarding B1, the binding result is “binds”.
